Measurements as given in the nanobody polyreactivity screen of Harvey et al. (2022).

Assay: yeast display, Sf9 membrane polyspecificity reagent, FACS + sequencing; frameworks hold sequencing errors
Summary of the method: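 Synthetic nanobody libraries on Saccharomyces cerevisiae BJ5465 were galactose-induced for 36–48 hours, stained 1 hour at 4 °C with 10% biotinylated, detergent-solubilized Sf9 membrane reagent and enriched on streptavidin microbeads. FACS then separated cells into low and high (top ~1%) gates by anti-HA (expression) and streptavidin (reagent binding) fluorescence. Genes were colony-PCR amplified, MiSeq 2 × 250 sequenced and CDR-length filtered. A clone's polyreactivity label is that of its gate of origin.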

Row | Sequence | polyreactivity (PSR sort gate)
1 | QVQLVESGGGLVQAGGSLRLSCAASGIFFNYMGWYRQAPGKEREFVAAIDYRGGNTFYADSVKGRFTISRDNAKNTVYLQMNSLKPEDTAVYYCARAFGQRRYDYWGQGTQVTVSS | high polyreactivity
2 | QVQLVESGGGLVQAGGSLRLSCAASGITFYEYDMGWYRQAPGKERELVAAITSRGGSTYYADSVKGRFTISRDNAKNTVYLQMNSLKPEDTAVYYCNAVRGWLYVFSYPYWDDEYWGQGTQVTVSS | high polyreactivity
3 | QVQLVESGGGLVQAGGSLRLSCAASGRIFPYYAKGWYRQAPGKERELVAAINSGGSTYYADSVKGRFTISRDNAQNTVYLQMNSLKPEDTAVYYCIADVLYEDGFFWDDYWGQGTQVTVSS | low polyreactivity
4 | QVQLVESGGGLVQAGGSLRLSCAASGSTFYSYAMVWYRPARGPERELVAAITSGGRTYYADSVKGRFTISRDNAKNTVYLQMNCLKPEDTAVYYCSADLPVFGGYRSNRFGYWGQGTQVTVSS | high polyreactivity
5 | QVQLVESGGGLDQAGGSLRLSGAASGSIFDNAMGWYSQAPGKERELVAAITSGGITNYADSVKGRFTISRDNAKNTVYLQMNSLKPEDTAVYYCNTLSPTQTKYDYWGQGTQVTVSS | low polyreactivity
6 | QVQLVESGGGLVQAGGSLRLSCAASGLIFRPYAMGWYRQAPGKERELFAGISFRGDSTYYADSVKGRFTISRDNAKNTVYLQMNCLKPEDTAVYYCDADVYIYWPPDKLLGYDYWGQGSQVTVSS | low polyreactivity
7 | QVQLVESGGGLVQAGGSHRLSCASYGLIFESYVMGWDRQAPGKERELVAAIRSSGGSTYYADSVKGRFTISRDNAKNTVYLQMNCLNPEDTAVYYCAANYYYYLTISWWYAYDYWGQGTQVTVSS | low polyreactivity
8 | QDQLVESGGGLVQAGCSLRLSCAASGLIFNYKVMGWYRHAPGKERELVAAISRGGSTYYADSVKGRFTFSRDNAKNTVYLQMNSLKPEDTAVYYCAARYRSRYDYWGQGTQVTVSS | high polyreactivity
9 | QVQLVESGGGLVQAGGSLRLSCAASGRTFVYYAMGWYRQAPGKERELVATITRSGGSTYYADSVKGRFTISRDNAKNTVYLQMNSLKPEDTAVYYCAVLYWRPGYDYWGQGTQVTVSS | high polyreactivity
10 | QVQLVESGGGLVQAGGSLRLSCAASGRTFRPYAMGWYRQAPGKERELVAAIRGSTGSTYADSVKGRFTISRDNAKNTVYLQMNSLKPEDTAVYSCATYRYYSGLGGGYWGQGTQVTVSS | high polyreactivity
11 | QVQLVESGGGLVQAGGSLRLSCAASGGTFYRYAMGWYRQAPGKEMELVAAISSRGGSTYYADSVKGRFTISRDNAKNTVYLQMNSLKPEDTAVYYCAALFYLTPWQYDYWGQGTQVTVSS | high polyreactivity
12 | QVQLVESGGGLVQAGGSLRLSCAASGFTIDGYAMGWYRQAPGKERELVAAIRRGGRTKYADSVKGRFTISRDNAKNTVYLQLNSLKPEDTAVYYCNAVTRGYYHEMEYWGQGTQVTVSS | high polyreactivity
13 | QVQLVESGGGVVQAGGSLRLSCAASGFIFWLYAMGRYRQAPGKERELVATITYSDGSTYYADSVKGRFTISRDKANNTDYLQMNSLKPEDTAVYYCAAEVYYGYDYWGQGTQVTVSS | low polyreactivity
14 | QVQLVESGGGLVQAGGSLRLSCAASGFIFVPYTMGWYRQAPGKERELVATINSNGGSTYYADSVKGRFTISRDNAKNTVYLQMNSLKPEDTAVYYCAAYYRWIGGRYTPYYYWGQGTQVTVSS | high polyreactivity
15 | QVQLVESGGGLVQAGGSLRLSCAAYGRTFIVNTMGWYRQAPGKERQLVAAITARGGRTYYADSVKGRFTISRDNAKNTVYLQMNSLKPEDTAVYYCNARTPPREAERYYWGQGTQVTVSS | low polyreactivity
16 | QVQLVESGGGLVQAGGSLRLSCAASGYIVGAYAKGWYRQAPGKERELVAGITASGDSTYYADSVKGRFTISRDNAKNTVYLQMKCLKPEDTAVYYCNAQPDIGLYDRQWKEPYEYWGQGTQVTVSS | low polyreactivity
17 | QVQLVESGGGLVQAGGSLRLSCAASGFTFSWYAMGWYRQAPGKERELVAAINADGGTTYYADSVKGRFTISRDNAKNTVYLQMNSLKPEDTAVYYCAVPYPYGYEYDHWGQGTQVTVSS | low polyreactivity
18 | QVQLVESGGGLVQAGGSLRLSCAASGSNFDIYAMGWSRQAPGKERELVAAISWNGGDTTYADSVKGRFTISRDNAKNTVYLQLNSLKPEDTAVYYCAADLGYWVADYYWGQGTQVTVSS | high polyreactivity
19 | QVQLVESGGGLVQAGGSLRLSCAASGRILTGYAMGWYRQAPGKARELVAAISNDTDSTHYADSVKGRFTISRDNAKNTVYLQMNSLKPEDTAVYYCATDAPLQKRWRRFDYWGQGTQVTVSS | low polyreactivity
20 | QVQLVESGGGIVQAGGSLRLSCAASGSTFVSNAMGWYRQAPGKERELVAAITTGGSTYYADSVKGRFTISRDNAKNTVYLQMNSLKPEDTAVYYCAADSVLNWFWGQGTQVTVSS | low polyreactivity
21 | QVQLVESGGGLVQAGGSLRLSCAASGRTFDHNTMGWYRQAPGTERELVAAISWSGGTTYYADSVKGRFTISRDNAKNTGYLQMNSLKPEDTAVYDCAADRSPGSYGYQYDYWGQGTQVTVSS | low polyreactivity
